{
  "source": "patent US8147817B2",
  "about": "“IL-33 in the treatment and diagnosis of diseases and disorders” (The Brigham and Women's Hospital, Inc., priority 2006, dated 2012)",
  "key": {"cardiomyocytes": {"system": "cardiomyocytes", "experiment": "Oxidative stress assay (DCFDA, ROS generation)", "format": "cell-based, rat", "conditions": "co-treatment with IL-33", "description": "An assay to detect oxidative stress was performed as reported previously (48). Cardiomyocytes were incubated with 2,7-dichlorodihydrofluorecein diacetate (DCFDA) for 45 min, washed in phosphate-buffered saline, and fluorescence intensity was measured using a fluorometer (PerkinElmer Life Science) at 595 nm."}, "NF-κB": {"system": "NF-κB", "experiment": "NF-κB luciferase reporter assay in neonatal rat cardiomyocytes", "format": "cell-based", "conditions": "angiotensin-II with IL-33 co-treatment, n=3", "description": "Neonatal rat cardiomyocytes were transfected using Lipofectamine Plus (Invitrogen) with a luciferase reporter plasmid for NF-κB and with β-galactosidase, as described previously (47). After 48 hours of transfection, cells were then stimulated for an additional 24 hours, lysed and treated with Dual-Light assay system (Applied Biosystems, Foster City, Calif.), and analyzed using a luminometer (PerkinElmer Waltham, Calif.)."}},
  "note": "“Also recorded” adds a separate entry of the source.",
  "data": [
    {"molecule": "IL-33: recombinant mature rat IL-33, starting with amino acid 109 of the full-length protein, N-terminal His tag (GenBank BC081993) (protein, left off: small tags and cut ends) SIQGTSLLTESCALSTYNDQSVSFVLENGCYVINVEDCGKNQEKDKVLLRYYESSFPAQSGDGVDGKKLMVNMSPIKDTDIWLNANDKDYSVELQKGDVSPPDQAFFVLHKKSSDFVSFECKNLPGTYIGVKDNQLALVEENDESCNNIMFKLSKM", "values": [
      {"measurement": "ROS generation in the presence of angiotensin-II or phenylephrine", "setting": "cardiomyocytes", "value": "significantly decreased the generation of ROS; also recorded: inhibited by IL-33 in cardiomyocytes"},
      {"measurement": "increase of NF-κB promoter activity", "setting": "NF-κB", "value": "8+/−12%"}
    ]}
  ]
}
